According to publication doi:10.1101/2022.03.10.483744 (bioRxiv, 2022):
Residue numbers refer to the chain shown, from its start. In names and notes the source's numbering stands. Several values for one entry are separate records, joined by “and”; a condition that tells them apart may be missing. Equal entries are not always repeated.

How the values were obtained:
[1] = target: CLPB-NBD (NBD-only variant, N-terminal ANK domain truncated) (human) (UniProt Q9H078); assay: cryo-EM 2D classification
CLPB^isoform1 (human) = assay: cryo-EM 2D classification
CLPB-NBD^E425Q (human) = CLPB-NBD^E425Q (human) (UniProt Q9H078); assay: cryo-EM structure
cryo-EM structure = target: the molecule itself; assay: cryo-EM structure
SEC = target: the molecule itself; assay: SEC
[2] = target: the molecule itself; assay: SEC + other: negative-staining EM

In the case of “CLPB-NBD (NBD-only variant, N-terminal ANK domain truncated) (from UniProt Q9H078-2 1-677) (domain or fragment)”, the stoichiometry N [1] is reported as 6 and 7.

Molecule CLPB^isoform1 (natural protein) has a stoichiometry N (CLPB^isoform1 (human)) of 14.

In the case of “CLPB-NBD^E425Q (from UniProt Q9H078-2 1-677) (domain or fragment)”, the stoichiometry N (CLPB-NBD^E425Q (human)) is reported as 6 and 7 and 9.

B1: CLPB-N127 (human CLPB isoform 2 starting from the PARL cleavage site) (natural protein)
chain: YSKSPSNKDAALLEAARANNMQEVSRLLSEGADVNAKHRLGWTALMVAAINRNNSVVQVLLAAGADPNLGDDFSSVYKTAKEQGIHSLEVLITREDDFNNRLNNRASFKGCTALHYAVLADDYRTVKELLDGGANPLQRNEMGHTPLDYAREGEVMKLLRTSEAKYQEKQRKREAEERRRFPLEQRLKEHIIGQESAIATVGAAIRRKENGWYDEEHPLVFLFLGSSGIGKTELAKQTAKYMHKDAKKGFIRLDMSEFQERHEVAKFIGSPPGYVGHEEGGQLTKKLKQCPNAVVLFDEVDKAHPDVLTIMLQLFDEGRLTDGKGKTIDCKDAIFIMTSNVASDEIAQHALQLRQEALEMSRNRIAENLGDVQISDKITISKNFKENVIRPILKAHFRRDEFLGRINEIVYFLPFCHSELIQLVNKELNFWAKRAKQRHNITLLWDREVADVLVDGYNVHYGARSIKHEVERRVVNQLAAAYEQDLLPGGCTLRITVEDSDKQLLKSPELPSPQAEKRLPKLRLEIIDKDSKTRRLDIRAPLHPEKVCNTI
For B1, the “stoichiometry N” value (cryo-EM structure) was 14.

B2: CLPB^Δ201-232 (natural protein)
chain: YSKSPSNKDAALLEAARANNMQEVSRLLSEGADVNAKHRLGWTALMVAAINRNNSVVQVLLAAGADPNLGDDFSSFKGCTALHYAVLADDYRTVKELLDGGANPLQRNEMGHTPLDYAREGEVMKLLRTSEAKYQEKQRKREAEERRRFPLEQRLKEHIIGQESAIATVGAAIRRKENGWYDEEHPLVFLFLGSSGIGKTELAKQTAKYMHKDAKKGFIRLDMSEFQERHEVAKFIGSPPGYVGHEEGGQLTKKLKQCPNAVVLFDEVDKAHPDVLTIMLQLFDEGRLTDGKGKTIDCKDAIFIMTSNVASDEIAQHALQLRQEALEMSRNRIAENLGDVQISDKITISKNFKENVIRPILKAHFRRDEFLGRINEIVYFLPFCHSELIQLVNKELNFWAKRAKQRHNITLLWDREVADVLVDGYNVHYGARSIKHEVERRVVNQLAAAYEQDLLPGGCTLRITVEDSDKQLLKSPELPSPQAEKRLPKLRLEIIDKDSKTRRLDIRAPLHPEKVCNTI
B2: binds (SEC).

B3: CLPB^R178E (natural protein)
chain: B1 chain with R52E
B3: binds [2].

B4: CLPB^R227E (natural protein)
chain: B1 chain with R101E
B4: binds [2].

B5: CLPB^E425Q (Walker B mutant of CLPB-N127) (natural protein)
chain: B1 chain with E299Q
With B5 the “stoichiometry N” value (cryo-EM structure) was 12.
